# Results: patent publication CN115124620A (SHENGHE CHINA BIO PHARMACY CO LTD, dated 2022)
# T1: 人NKp30-his蛋白(KACTUS;Cat:NKP-HM430) (human, UniProt O14931 19-135)
# T1 construct: Bought protein; Molar concentration was calculated with 35 kDa; also called 重组人NKp30-his; 人NKp30蛋白; not shown: his tag
# T1 sequence (looked up): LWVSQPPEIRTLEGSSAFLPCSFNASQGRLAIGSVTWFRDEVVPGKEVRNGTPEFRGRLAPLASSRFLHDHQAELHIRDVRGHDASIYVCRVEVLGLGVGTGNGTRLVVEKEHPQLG
# Molecular target: T1, 人NKp30-his蛋白(KACTUS;Cat:NKP-HM430)
# Experiment: BLI (Octet Red96e), antibody captured on sensor, 100 nM human NKp30-his in solution, 1:1 model
Binder,Kd [nM],koff [s⁻¹],kon [M⁻¹ s⁻¹]
"抗体6 (antibody, V domains shown, Mouse hybridoma monoclonal antibody purified on Protein A; also called 鼠源抗NKp30抗体; NKp30 mAb) VH: QVQLQQSGAELVRPGVSVKISCKGSGYTFTDYAMHWVKQSHAKSLEWIGIISTYYGDASYNQKFKGKATMTVDKSSSTAYMELARLTSEDSAIYYCARDYDNRYAAMDYWGQGTSVTVSS VL: DIVMTQAAFSNPVTLGTSASISCRSSKSLLHSNGITYLYWYLQKPGQSPQLLIYQMSNLASGVPDRFSSSGSGTDFTLRISRVEAEDVGVYYCAQNLELPYTFGGGTKLEIK",5.43,0.00585,1.08e+06
"抗体4 (antibody, V domains shown, Mouse hybridoma monoclonal antibody purified on Protein A; also called 鼠源抗NKp30抗体; NKp30 mAb) VH: EVQLVESGGGLVKPGGSLKLSCAASGFTFSDYGMSWIRQTPEKRLEWVASISSGGTYTYYPDSVKGRFTISRDSAKNTLYLQMNSLRSEDTAMYYCARRDGYYSVEYWGQGTSVTVSS VL: QIVLTQSPAIMSASPGGEVTMTCSASSSVSFMHWYQQKSGTSPKRWIFDTSKLASGVPTRFSGSGSGTSYSLTISSMEAEDAATYYCQQWTTNPPTFGGGTKLEIK",0.846,0.000338,399000
"抗体3 (antibody, V domains shown, Mouse hybridoma monoclonal antibody purified on Protein A; also called 鼠源抗NKp30抗体; NKp30 mAb) VH: QGQLQQSGAEVMKPGASVKISCKANGHTFGSYWIEWIKQRPGHGLEWIGEILPGSGSKKYNEKFEGKATFTEETSSNTAYMELTSLTSEDSAVYYCSRGGYYGSRFAYWGQGTLVTVSA VL: DVVLTQTPLSLPVNIGDQASISCKSTKSLLNSDGFTYLDWYLQKPGQSPQLLIYLVSNRFSGVPDRFSGSGSGTDFTLKISRVEAEDLGVYYCFQSNYLPFTFGSGTKLEIK",2.03,0.00194,959000

# Now those with a lower Kd, led by results:
Kd [nM],koff [s⁻¹],kon [M⁻¹ s⁻¹],Binder
0.821,0.000552,673000,"抗体5 (antibody, V domains shown, Mouse hybridoma monoclonal antibody purified on Protein A; also called 鼠源抗NKp30抗体; NKp30 mAb) VH: VLILKESGGGLVKPGGSLKLSCAASGFAFSSYDMSWVRQTPEKRLEWVATISSGGSYTYYPDSVKGRFTISRDNARNTLYLQMSSLRSEDTALYYCARHFGDHDGYVMDYWGQGTSVIVSS VL: DIVMTQSPSSLAMSLGQKVTMSCKSSQSLLNSSNQKSNLAWYQQKPGQSPKLLVYFASTRESGVPDRFIGSGSGTDFSLTIRSVQAEDLADYFCQQHYSTPFTFGSGTKLEIK"
0.439,0.000708,1.61e+06,"抗体1 (antibody, V domains shown, Mouse hybridoma monoclonal antibody purified on Protein A; also called 鼠源抗NKp30抗体; NKp30 mAb) VH: QVQLQQPGAELVKPGASVKLSCKASGYTFTSYWMEWVKLRPGQGFDWIGEINPSNGGTNYNEKFKRKAILTVDKSSSAAYMQLSGLTSEDSAVYYCTIGGDYAWFAYWGQGTLVTVSA VL: DIKMTQSPSSMYASLGERVTITCKASQDIKSYLSWYQQKPWKSPKTLIFYATSLADGVPSRFSASGSGQDYSLTISSLESDDTATYYCLQHGESPYTFGGGTKLEIK"
0.197,0.000212,1.08e+06,"抗体2 (antibody, V domains shown, Mouse hybridoma monoclonal antibody purified on Protein A; also called 鼠源抗NKp30抗体; NKp30 mAb) VH: EVQLQQFGAELVKPGASVKISCKASGYTFTDYNMDWVKQSHGKSLEWIAYINPNYEITTYNQKFKGKATLTVDKSSSTAYMELRSLTSEDTAVYYCARGRGGYDPAMDYWGQGTSVTVSS VL: SIVMTQTPKFLLVSAGDRVTITCKASQSVSNDVTWSQQKPGQSPKLLIYYASNRYTGVPDRFTGSGYGTDFTFTISTVQAEDLAVYLCQQDNSTPPTFGAGTKLELK"
